A short description of the series: label from the status in PepcDB records.

For “MASKMDTETHYSDVWVVIPAFNEAAVIGKVVTDVRSVFDHVVCVDDGSTDGTGDIARRSGAHLVRHPINLGQGAAIQTGIEYARKQPGAQVFATFDGDGQHRVKDVAAMVDRLGAGDVDVVIGTRFGRPVGKASASRPPLMKRIVLQTGARLSRRGRRLGLTDTNNGLRVFNKTVADGLNITMSGMSHATEFIMLIAENHWRVAEEPVEVLYTEYSKSKGQPLLNGVNIIFDGFLRGRMPR”, the protein production entry is recorded as “failed”.
Then “MASKPEKRVASSVFITLAPPRRDVAVSEEVGQAACEARRARPWEMLPTKTPGAAVGRSPKTWTPSGKTNASLSGVTPQLSNGGCSLPPPSLNEEDLDLPPPPPPPSAYLPLPEEEPPVLPGKSLISDLEQLHLPPPPPPPPPQAPSKGSSVHPPPGHAIPSEEELPPPPEEPVTLPEREVSTDVCGFCHKPVSPRELAVEAMKRQYHAQCFTCRTCRRQLAGQRFYQKDGRPLCEPCYQDTLEKCGKCGEVVQEHVIRALGKAFHPPCFTCVTCARCISDESFALDSQNQVYCVADFYRKFAPVCSICENPIIPRDGKDAFKIECMGRNFHENCYRCEDCSVLLSVEPTDQGCYPLNDHLFCKPCHLKRSAAGCC”, with “failed”.
Then “MASKSQKKVLKKQNKKKKKDPLAPKRALSAYMFYVKDKRLEIIKEKPELAKDVAQVGKLIGEAWGQLSPAQKAPYEKKAQLDKVRYSKEIEEYRKKNQE”, with “failed”; and “MASLEVSRSPRRSRRELEVRSPRQNKYSVLLPTYNERENLPLIVWLLVKSFSESGINYEIIIIDDGSPDGTRDVAEQLEKIYGSDRILLRPREKKLGLGTAYIHGMKHATGNYIIIMDADLSHHPKFIPEFIRKQKEGNFDIVSGTRYKGNGGVYGWDLKRKIISRGANFLTQILLRPGASDLTGSFRLYRKEVLEKLIEKCVSKGYVFQMEMIVRARQLNYTIGEVPISFVDRVYGESKLGGNEIVSFLKGLLTLFATT”, with “failed”.
Turning to “MASLRVACVIPTYNGRKDLERLLDSLATQTASFDTLIVDSSSSDGTLELAQARCANVLRIDSKDFNHGGTRQMMVDVHPDYDVYVYMTQDAYVEDIDAIANILLPFADPKVGAVCGRQLPHKNANLLAQHARLFNYPPTSQIKTLADAGTLGIKTPFMSNSFAAYRGEALRAIGGFPRHVILSEDMYVTAKMLIDGWKVAYEGSAVCRHSHNYSLREEFCRYFDIGVFQSREAWIYETFGGIGGEGMRYVKSELKFLGPRRLLWWPMSFVRNALKLLAYKLSKQEKRLPRGLKKKLGMYKRYWDSPYA”, the protein production result was “failed”.
“MASLVAYDDSDPESEADPARSGDAAGQMSDVSGISRPEVEFASSTGVTKEGAQHTGNSPYEDPGKQRLPLARLWRSDPGSCPSQRLQWPSKEPDSTFPTSEPPGPSLWMNRAPVGHVPLAAACFKPLKPAWDAFTPSHTHSKLESTAGNASSSQRKRGEACVLPYIPKRLRQLQVLNPEATGGRDVEPPGSPAGCAPAPLCVAPTVSEFIQPYLNSQYRETTVPKKVLFHLRGHRGPVNSIQWCPVFSKSHMLLSASMDKTFKVWNAVDSGHCLQTYSVHSEAVRAARWSPCGRRILSGGFDFALHLTDLETGTQVFSGHSDFRVTTLKFHPKDHNVFLCGGFSSEIKAWDMRTGKVVKGYKATIQQTLDILFLQEGSEFLSSTDASTRDSADRTIIAWDFRTAAKISNQIFHERYTCPSLALHPREPVFLAQTNGNYLALFSSVWPYRMSRRRRYEGHKVEGYAVGCECSPCGDLLVTGSADGRVLMFSFRTASRACTLQGHTQACLGTTYHPVLPSVLGTCSWGGDIKIWH”: the protein production entry was “failed”.
As for “MASPAAGDVLIVGSGLVGRSWAMLFASGGFRVKLYDIEPRQITGALENIRKEMKSLQQSGSLKGSLSAEEQLSLISSCTNLAEAVEGVVHIQECVPENLDLKRKIFAQLDSIVDDRVVLSSSSSCLLPSKLFTGLAHVKQCIVAHPVNPPYYIPLVELVPHPETSPATVDRTHALMRKIGQSPVRVLKEIDGFVLNRLQYAIISEAWRLVEEGIVSPSDLDLVMSDGLGMRYAFIGPLETMHLNAEGMLSYSDRYSEGMKRVLKSFGSIPEFSGATVEKVNQAMCKKGPADPEHLAARREWRDECLKRELAKLKRQMQPQ”, the entry is “not failed”.
Then “MASPLYPSVLNNPLSSIVVTRDEFNAFHTIDRTLFSRLVFNLNRDVDQSFLAMCFLLFLEQSSYARDIIAYLVSLPNAFVDAVANEIGVCINLLYNVEFASTFFAADNDDNSMIPLLLRITGGKFTLRLINQQRKNFCAGVTKSWTDVCTRAFSDLCETAHRINREKQLALEREKFIEDMKKLRLSLQQEKSNRLSVQQVKIASPPPPRPHPPVEDETEKALREKETMEVKEKEGVLAADDRTVFLTFSKGYPISEAEVRVYFTRRFGEVIEAVEMQEVEANEQPLFAKMVMKLQCASMMDEIVSARFRNKFTIDGKHVWARKYVRKNPYPASSSTHF”, with “failed”; and “MASREVSITRISPLATFRVALAMSIIGLVAWIICVTVLYFGLNVAGVWQNFNDVIGGVGAEQTITFGLVLSISALLGAIGAITVAVLAPLCAIIYNSIVDLFGGLQIQLQEEVD”, with “failed”; and “MASSLITSAVIVVVLSLVLGSVEQVSGLRHVPKSPKTTDVKHPDFLVTIEPKPTILIPGVGRFLLPPKCKKPFYPYNPVTGAPLTGGGIPSYNGGQGAGPHTQLPGGDDTLVPNPGFEAPTPTIGAGTGSNGQVPPVPLP”, with “failed”.
Then “MASSPRPTEQTKQFFQQWQTYQQLVDHNYMAHRQIHQAVGALIQQQFDRPFDFLDLGCGDAQAIAKTLTGSKINSYTGVDLSPNALALAQKNLDPFRQVELRETDFLTYLGEANQTAPASFDLIHVGFSLHHLLPEEKEQFFAHCFSLLRPGGCLVIYDVFRQPEQNRQQYIEAYLAKAESQWTALAPDQLQAIAAHIKECDFPELVATMAEIGQKVGFIPPQVLFTEPRGFHHCFAFAISQSGKALAQDGV”, with “failed”; and “MASTYYELLGVSKYASEADIKKAFKDLAKKYHPDKHPGEAFYEEHFKKINEAYQILSDKQARQNYDFRLQYGQHAQQSRPAQNQQRAYQRPTATYQQPKYRRPKPAASGTSAYQKKLNTYYISIAIGAVVFIFACYWFYSFMNTYSSKKYFNEGLKAESRGNDMQALSFYFSALEINLKNPEVNEKIGDLYSKFATNSSYDLFYYDLELQKNFQDPDFDATSIELLKKTRNVDSLAALYYKRSFENFEMPVDKRRVGLKSIKACLKTGDYKQAADNLYKVSFLPDYKRDDSVLYYRGDVIFQTRFYDQARDNYRKFLALHPTSAEASVKIAVCHYNEHNEDYALAQLAKTIKRFPANGEAYYFLGQIHLRNNDTLKACSNFYKADSLHVLAAKPSLYKYCRN”, with “failed”.
Regarding “MASWPYCNHKRGLNGYGVFFSIFFGSGAYNAPVRIAVLADIHGNADALRAVLKDAAEQGAERLIVNGDVVNRGPDSVQVMEELLARDDTSFVLGNHDDLLRLWHTRSDKLPQDWYDDPFWGATAWSTEQLHAAGLLDVPGDWPLTARLSVPGLPDVLLAHGTPDDYRRGLSERTDPALVRRIADESGAGVLVGSHIHRQADALVGGVRVLNTGAVGSPADGDPRAQYLLLTATPQGWQTELRRVPYDRSGVLQRFETSGLLDTGLSARIFRDELVTARSLYTPYWEWTETGGCPRDTASWEQFAQDWT”, the protein production result is “failed”.
For “MASYVFIRVSKIRKGYFPVLLAIGFAITFAEGFILFLVNFGAIPTNGPTIQLVPQIIMQNPNPLIRFYGTLILLCFLNTIVLSIFYATIAKLLPKFSG”, the protein production entry is given as “failed”.

The record behind these values is a protein production outcome set (Wang et al. 2014).
